# According to article doi:10.1101/751602 (bioRxiv, 2019):
# B1: Arabidopsis thaliana β-amylase2 (AtBAM2), wild type (enzyme, UniProt O65258 56-542, looked up)
# chain: AESTEEDRVPIDDDDDSTDQLVDEEIVHFEERDFAGTACVPVYVMLPLGVIDMNSEVVEPEELLDQLRTLKSVNVDGVMVDCWWGIVESHTPQVYNWSGYKKLFQMIRELGLKIQVVMSFHECGGNVGDDVHIQIPEWVREIGQSNPDIYFTDSAGRRNTECLTWGIDKQRVLRGRTALEVYFDYMRSFRVEFDEFFEEKIIPEIEVGLGPCGELRYPSYPAQFGWKYPGIGEFQCYDKYLMNSLKEAAEVRGHSFWGRGPDNTETYNSTPHGTGFFRDGGDYDSYYGRFFLNWYSRVLIDHGDRVLAMANLAFEGTCIAAKLSGIHWWYKTASHAAELTAGFYNSSNRDGYGPIAAMFKKHDAALNFTCVELRTLDQHEDFPEALADPEGLVWQVLNAAWDASIPVASENALPCYDREGYNKILENAKPLTDPDGRHLSCFTYLRLNPTLMESQNFKEFERFLKRMHGEAVPDLGLAPGTQETNPE
# Legend:
# [1] = target: AtBAM2 with the Ndel1 truncation (Arabidopsis thaliana) (UniProt O65258); assay: small-angle X-ray scattering
# [2] = target: the molecule itself; assay: small-angle X-ray scattering
Molecule,stoichiometry N [1],stoichiometry N [2]
AtBAM2 with the Ndel1 truncation (from UniProt O65258 86-542) (domain or fragment),4,
B1,,4
